Assay results taken from the Human Domainome abundance scans (Beltran et al. 2025).
± gives the uncertainty stated by the source.

B1: Ubiquitin-protein ligase residues 30 to 86; numbered along this chain, Q05086 (parent)
chain: KHLIERYYHQLTEGCGNEACTNEFCASCPTFLRMDNNAAAIKALELYKINAKLCDPH

Variants of: B1
Assay: abundance fitness (aPCA) (normalised: wild type 0, dead -1); higher = more abundant; growth selection in yeast, the domain comes from the species named
Details: Homo sapiens

Point of comparison: KHLIERYYHQLTEGCGNEACTNEFCASCPTFLRADNNAAAIKALELYKINAKLCDPH, abundance fitness -0.029 ± 0.072. Against it:
- KHLIERYYHQLTEGCGNEACTNEFCASCPTFTRMDNNAAAIKALELYKINAKLCDPH — within error, 0.098 ± 0.13
- KHLIERYYHQLTEGCGNEACTNEFCASCPTFQRMDNNAAAIKALELYKINAKLCDPH — within error, 0.043 ± 0.13
- KHLIERYYHQLTEGCGNEACTNEFCASCPTFYRMDNNAAAIKALELYKINAKLCDPH — within error, -0.233 ± 0.18
- KHLIERYYHQLTEGCGNEACTNEFCASCPTFIRMDNNAAAIKALELYKINAKLCDPH — within error, -0.036 ± 0.14
- KHLIERYYHQLTEGCGNEACTNEFCASCPTFARMDNNAAAIKALELYKINAKLCDPH — within error, 0.006 ± 0.081
- KHLIERYYHQLTEGCGNEACTNEFCASCPTFSRMDNNAAAIKALELYKINAKLCDPH — within error, -0.053 ± 0.072
- KHLIERYYHQLTEGCGNEACTNEFCASCPTFVRMDNNAAAIKALELYKINAKLCDPH — within error, 0.009 ± 0.067
- KHLIERYYHQLTEGCGNEACTNEFCASCPTFNRMDNNAAAIKALELYKINAKLCDPH — higher, 0.202 ± 0.14
- KHLIERYYHQLTEGCGNEACTNEFCASCPTFCRMDNNAAAIKALELYKINAKLCDPH — within error, -0.082 ± 0.11
- KHLIERYYHQLTEGCGNEACTNEFCASCPTFKRMDNNAAAIKALELYKINAKLCDPH — within error, 0.081 ± 0.13
- KHLIERYYHQLTEGCGNEACTNEFCASCPTFPRMDNNAAAIKALELYKINAKLCDPH — within error, 0.148 ± 0.14
- KHLIERYYHQLTEGCGNEACTNEFCASCPTFRRMDNNAAAIKALELYKINAKLCDPH — within error, -0.033 ± 0.071
- KHLIERYYHQLTEGCGNEACTNEFCASCPTFWRMDNNAAAIKALELYKINAKLCDPH — within error, -0.193 ± 0.11
- KHLIERYYHQLTEGCGNEACTNEFCASCPTFDRMDNNAAAIKALELYKINAKLCDPH — within error, -0.049 ± 0.11
- KHLIERYYHQLTEGCGNEACTNEFCASCPTFGRMDNNAAAIKALELYKINAKLCDPH — within error, -0.034 ± 0.061
- KHLIERYYHQLTEGCGNEACTNEFCASCPTFHRMDNNAAAIKALELYKINAKLCDPH — within error, -0.093 ± 0.12
- KHLIERYYHQLTEGCGNEACTNEFCASCPTFFRMDNNAAAIKALELYKINAKLCDPH — lower, -0.239 ± 0.13
- KHLIERYYHQLTEGCGNEACTNEFCASCPTFLRHDNNAAAIKALELYKINAKLCDPH — within error, -0.095 ± 0.13
- KHLIERYYHQLTEGCGNEACTNEFCASCPTFLRFDNNAAAIKALELYKINAKLCDPH — within error, -0.061 ± 0.14
- KHLIERYYHQLTEGCGNEACTNEFCASCPTFLREDNNAAAIKALELYKINAKLCDPH — within error, -0.053 ± 0.1
- KHLIERYYHQLTEGCGNEACTNEFCASCPTFLRGDNNAAAIKALELYKINAKLCDPH — within error, -0.117 ± 0.084
- KHLIERYYHQLTEGCGNEACTNEFCASCPTFLRIDNNAAAIKALELYKINAKLCDPH — within error, 0.054 ± 0.15
- KHLIERYYHQLTEGCGNEACTNEFCASCPTFLRKDNNAAAIKALELYKINAKLCDPH — lower, -0.23 ± 0.11
- KHLIERYYHQLTEGCGNEACTNEFCASCPTFLRLDNNAAAIKALELYKINAKLCDPH — within error, -0.002 ± 0.069
- KHLIERYYHQLTEGCGNEACTNEFCASCPTFLCMDNNAAAIKALELYKINAKLCDPH — within error, -0.152 ± 0.11
- KHLIERYYHQLTEGCGNEACTNEFCASCPTFLIMDNNAAAIKALELYKINAKLCDPH — within error, -0.1 ± 0.15
- KHLIERYYHQLTEGCGNEACTNEFCASCPTFLHMDNNAAAIKALELYKINAKLCDPH — within error, -0.109 ± 0.17
- KHLIERYYHQLTEGCGNEACTNEFCASCPTFLFMDNNAAAIKALELYKINAKLCDPH — lower, -0.415 ± 0.23
- KHLIERYYHQLTEGCGNEACTNEFCASCPTFLNMDNNAAAIKALELYKINAKLCDPH — within error, -0.109 ± 0.17
- KHLIERYYHQLTEGCGNEACTNEFCASCPTFLGMDNNAAAIKALELYKINAKLCDPH — within error, 0.014 ± 0.06
- KHLIERYYHQLTEGCGNEACTNEFCASCPTFLEMDNNAAAIKALELYKINAKLCDPH — within error, -0.011 ± 0.11
- KHLIERYYHQLTEGCGNEACTNEFCASCPTFLYMDNNAAAIKALELYKINAKLCDPH — within error, -0.19 ± 0.14
- KHLIERYYHQLTEGCGNEACTNEFCASCPTFLVMDNNAAAIKALELYKINAKLCDPH — within error, -0.013 ± 0.076
- KHLIERYYHQLTEGCGNEACTNEFCASCPTFLWMDNNAAAIKALELYKINAKLCDPH — lower, -0.294 ± 0.1
- KHLIERYYHQLTEGCGNEACTNEFCASCPTFLTMDNNAAAIKALELYKINAKLCDPH — within error, -0.025 ± 0.12
- KHLIERYYHQLTEGCGNEACTNEFCASCPTFLDMDNNAAAIKALELYKINAKLCDPH — lower, -0.245 ± 0.13
- KHLIERYYHQLTEGCGNEACTNEFCASCPTFLMMDNNAAAIKALELYKINAKLCDPH — within error, -0.145 ± 0.12
- KHLIERYYHQLTEGCGNEACTNEFCASCPTFLPMDNNAAAIKALELYKINAKLCDPH — within error, -0.017 ± 0.13
- KHLIERYYHQLTEGCGNEACTNEFCASCPTFLLMDNNAAAIKALELYKINAKLCDPH — within error, -0.148 ± 0.1
- KHLIERYYHQLTEGCGNEACTNEFCASCPTFLSMDNNAAAIKALELYKINAKLCDPH — within error, -0.041 ± 0.082
- KHLIERYYHQLTEGCGNEACTNEFCASCPTFLAMDNNAAAIKALELYKINAKLCDPH — within error, -0.099 ± 0.087
- KHLIERYYHQLTEGCGNEACTNEFCASCPTFLKMDNNAAAIKALELYKINAKLCDPH — within error, 0.033 ± 0.16
- KHLIERYYHQLTEGCGNEACTNEFCASCPTWLRMDNNAAAIKALELYKINAKLCDPH — within error, -0.188 ± 0.11
- KHLIERYYHQLTEGCGNEACTNEFCASCPTVLRMDNNAAAIKALELYKINAKLCDPH — within error, -0.038 ± 0.068
- KHLIERYYHQLTEGCGNEACTNEFCASCPTTLRMDNNAAAIKALELYKINAKLCDPH — within error, -0.023 ± 0.11
- KHLIERYYHQLTEGCGNEACTNEFCASCPTYLRMDNNAAAIKALELYKINAKLCDPH — within error, -0.06 ± 0.11
